Assay results reported in IntAct's records for PubMed 23624404.

Molecular target: rad51_yeast RAD51 (UniProt P25454)
Sequence (P25454 whole entry): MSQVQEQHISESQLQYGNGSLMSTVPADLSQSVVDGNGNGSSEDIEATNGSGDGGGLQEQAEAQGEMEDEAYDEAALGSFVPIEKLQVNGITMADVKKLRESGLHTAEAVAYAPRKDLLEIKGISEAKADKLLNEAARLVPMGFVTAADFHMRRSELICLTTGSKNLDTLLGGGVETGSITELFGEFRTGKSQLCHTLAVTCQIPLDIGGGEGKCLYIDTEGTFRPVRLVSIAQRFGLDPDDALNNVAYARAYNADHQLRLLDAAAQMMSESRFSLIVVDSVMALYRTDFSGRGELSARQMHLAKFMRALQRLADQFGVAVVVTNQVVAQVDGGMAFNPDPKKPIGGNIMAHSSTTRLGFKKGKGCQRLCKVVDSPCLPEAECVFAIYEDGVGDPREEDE

## DNA repair and recombination protein RAD52 (Saccharomyces cerevisiae) (from UniProt P06778) K10R;K11R;K220R
  effect of a mutation on the interaction: decreasing interaction strength
